For the test, the target named is CU228, putative PAS-HTH transcription factor from Candidatus Solibacter usitatus (Candidatus Solibacter usitatus). Kind of test: SEC-MALS. (In general: SEC sorts molecules by how far they enter the pores of the column.)

This note sets out measurements from publication PMC12514839 (Protein science : a publication of the Protein Society, 2025).

As usually defined, the stoichiometry N is a count of units in the complex or per binding partner.

“CU228, putative PAS-HTH transcription factor from Candidatus Solibacter usitatus (natural protein)” yielded a stoichiometry N of 2.
